Assay results: patent US11396544 (dated 2022)
Blank lines part the entries; values can stand above or below the binder they belong to.

Columns and labels:
[1] = molecular target: human CD28 (cell surface) (human, UniProt P10747); experiment: FACS, Jurkat
[2] = molecular target: hCD28.mmH (human); experiment: SPR, 25C
[3] = molecular target: T1, human CD22 (cell surface) (human, UniProt P20273); experiment: FACS, Raji/CD80 and CD86 negative
[4] = molecular target: T1, human CD22 (cell surface); experiment: FACS, Nalm6
[5] = molecular target: T1, human CD22 (cell surface); experiment: FACS, HEK293/hCD20/hCD22

EC50 [1]: 23 nM
Kd [2]: 404 nM
B1: REGN5838 (CD28 arm) (antibody, V domains shown)
VH: QVQLQESGPGLVKPSETLSLTCTVSGGSISSYYWSWIRQPPGKGLEWIGYIYYSGITHYNPSLKSRVTISVDTSKIQFSLKLSSVTAADTAVYYCARWGVRRDYYYYGMDVWGQGTTVTVSS
VL: not shown

EC50 [1]: 21 nM
B2: REGN5837 (CD28 arm) (antibody, V domains shown)
VH: B1 VH
VL: not shown

EC50 [3]: 14.9 nM
EC50 [4]: 18 nM
EC50 [5]: 11.4 nM
B3: REGN5838 (CD22 arm) (antibody, V domains shown)
VH: EVQLVESGGGLVQPGGSLKLSCAASGFTFSGSDMHWVRQASGKGLEWVGRIRNQPNSYATAYAASVKGRFTISRDDSKNTAHLQMNSLKTEDTAVYFCTRQKQVVYNYHHYYGMDVWGQGTTVTVSS
VL: not shown

EC50 [3]: 9.76 nM
EC50 [4]: 13 nM
B4: REGN5837 (CD22 arm) (antibody, V domains shown)
VH: EVQLVQSGAEVKKPGESLKISCKGSGYNFATYWIAWVRQMPGKGLELMGIIYPGDSETTYNPSFQGQVTISADKSISNAYLQWSSLKASDTAMYYCARVGGYCSGTSCHNWFDPWGLGTLVTVSS
VL: not shown
